Measurements published in patent US8993714B2, “Streptavidin macromolecular adaptor and complexes thereof” (Imiplex LLC, priority 2007, dated 2015).

How the values were obtained:
[1] = Binding of purified MJ0577 to nucleotide mimicking resin Cibacron Blue; conditions: 25 mM sodium phosphate buffer pH 7.6
Procedure: (§1) The structure of MJ0577 was determined in the context of a structural genomics project aimed at elucidating protein function through 3D structural studies. […] Because the nucleotide was not added to buffers used during purification and crystallization, the authors concluded that ATP was scavenged from the growth media. […] Because the purification protocol developed here includes heating and dialysis at pH 5.2 steps, we believed that it was possible that the protein would be isolated as the ATP-free form. To test this hypothesis, the affinity of purified MJ0577 for the nucleotide mimicking resin, Cibacron Blue, was tested following the procedure successfully applied in the purification of an MJ0577 structural relative, E. coli YnaF (Saveanu et al. 2002). […] MJ0577 was dialyzed overnight against 8 M guanidinium HCl (GuHCl) 0.2 M TRIS pH 8.2, 5 mM DTT, then dialyzed overnight against 8 M urea, and finally equilibrated to non-denaturing conditions by dialysis against 25 mM sodium phosphate buffer pH 7.6. In a separate experiment, MJ0577 was dialyzed overnight against 2 M GuHCl in 25 mM L-histidine pH 5.6, 2 M GuHCl in 25 mM CHES pH 9.8, and 2 M GuHCl in 25 mM sodium phosphate buffer pH 7.8, 20% DMSO. Half of each sample was then heated at 40° C. for one hour. […] Such results can enable the ready establishment of proper conditions for a biotin-ATP substituted SAMA.

[2] = Binding of MJ0577 to ATP immobilized on a resin via the g-phosphate, analysis by PAGE; conditions: after dialysis against GuHCl/urea
Procedure: as §1

[3] = Zarembinski et al. 1998; cited from earlier work

B1: MJ0577: protein dimer isolated from the thermostable bacterium Methanococcus jannaschii, 162 residues, SEQ ID NO: 11; SAMA template (protein, listed as Methanococcus jannaschii)
chain: MSVMYKKILYPTDFSETAEIALKHVKAFKTLKAEEVILLHVIDEREIKKRDIFSLLLGVAGLNKSVEEFENELKNKLTEEAKNKMENIKKELEDVGFKVKDIIVVGIPHEEIVKIAEDEGVDIIIMGSHGKTNLKEILLGSVTENVIKKSNKPVLVVKRKNS
modifications: dimer
notes: SAMA template
Q: For B1, which “binding to Cibacron Blue resin” value [1] is on record?
A: Its value is “No binding was observed”.

Q: What about the “interaction with ATP resin” value [2] of the same molecule?
A: The value was “essentially no interaction”.

Q: And the “thermostable to” value [3]?
A: The value was “at least 80 °C”.
